The series deals with cytochrome C.

Sequence of S. rebaudiana CPR1 (cytochrome P450 reductase) (chain, as listed by the source): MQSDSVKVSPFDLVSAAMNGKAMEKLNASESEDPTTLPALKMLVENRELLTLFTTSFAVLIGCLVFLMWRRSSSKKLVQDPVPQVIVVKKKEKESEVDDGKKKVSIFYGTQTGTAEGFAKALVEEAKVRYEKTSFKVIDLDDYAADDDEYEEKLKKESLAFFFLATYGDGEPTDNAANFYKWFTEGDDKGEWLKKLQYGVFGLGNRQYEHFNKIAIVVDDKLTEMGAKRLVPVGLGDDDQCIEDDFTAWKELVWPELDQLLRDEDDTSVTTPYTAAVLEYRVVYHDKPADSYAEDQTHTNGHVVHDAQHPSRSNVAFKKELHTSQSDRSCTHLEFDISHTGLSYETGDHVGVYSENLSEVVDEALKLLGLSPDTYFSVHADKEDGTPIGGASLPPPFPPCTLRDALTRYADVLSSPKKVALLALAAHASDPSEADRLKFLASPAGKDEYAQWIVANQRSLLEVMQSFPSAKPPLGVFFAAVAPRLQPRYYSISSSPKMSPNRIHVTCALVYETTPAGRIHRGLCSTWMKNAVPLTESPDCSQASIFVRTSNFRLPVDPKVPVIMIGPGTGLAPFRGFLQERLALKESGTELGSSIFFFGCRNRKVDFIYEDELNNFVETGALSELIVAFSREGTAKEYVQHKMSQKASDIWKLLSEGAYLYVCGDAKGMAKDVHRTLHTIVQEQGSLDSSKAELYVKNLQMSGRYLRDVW

Regarding “S. rebaudiana CPR1 (cytochrome P450 reductase)”, the “CPR activity (cytochrome C reductase assay, increase in absorbance at 550 nm, units/mg microsomal protein)” value was 7- and 14-fold higher activity, respectively, compared to the negative control.
